The source of these data is paper PMC4849472 (Cell Discovery, 2016).

Holding throughout (conditions): both partners purified
Assay [1] has as its target T1, Hsp90 (human, UniProt P07900 1-732). In words: native MS; Hsp90_(2) 1 μM with 2 μM of both FKBP51 and FKBP52.
Assay [2] addresses T1, Hsp90. The assay can be described thus: native MS; as a12 (Hsp90/Hsp70/Hop/GR/Hsp40/p23/FKBP51), then challenged with excess FKBP52.
Assay [3] deals with T1, Hsp90. In words: native MS; competition: Hsp90_(2) with Hop, FKBP51 and FKBP52, all at equimolar concentration (3 μM).
Assay [4] addresses T1, Hsp90. In words: native MS; Hsp90_(2) 3 μM with FKBP51 and FKBP52 in twofold molar excess (6 μM), the highest concentrations studied.
In assay [5] the target is client-transfer complex (Hsp90)2(Hop)1(Hsp70)2(GR)1 (human, UniProt P07900 1-732; P31948 1-543; P0DMV8 1-641; P04150 521-777, F602S). In words: native MS; (Hsp70)2, GR, Hop and (Hsp90)2 all at 0.5 μM with Hsp40 and excess ATP; then an equimolar ratio of FKBP52 added to the formed complex.
For assay [6], the target named is T1, Hsp90. The assay is described as above.
Assay [7] concerns the target T1, Hsp90. In words: native MS; as a8, then stoichiometric p23 added (300 μM ATP magnesium acetate, a further 15 min).
Assay [8] has as its target T1, Hsp90. In words: native MS; p23 added to the client-transfer complex without immunophilin, with ATP; MS/MS (collision-induced dissociation) of the isolated 32+ charge state of (Hsp90)2(p23)2(GR)1.

B1: FKBP52 (natural protein, human, UniProt Q02790 1-459, looked up)
chain: MTAEEMKATESGAQSAPLPMEGVDISPKQDEGVLKVIKREGTGTEMPMIGDRVFVHYTGWLLDGTKFDSSLDRKDKFSFDLGKGEVIKAWDIAIATMKVGEVCHITCKPEYAYGSAGSPPKIPPNATLVFEVELFEFKGEDLTEEEDGGIIRRIQTRGEGYAKPNEGAIVEVALEGYYKDKLFDQRELRFEIGEGENLDLPYGLERAIQRMEKGEHSIVYLKPSYAFGSVGKEKFQIPPNAELKYELHLKSFEKAKESWEMNSEEKLEQSTIVKERGTVYFKEGKYKQALLQYKKIVSWLEYESSFSNEEAQKAQALRLASHLNLAMCHLKLQAFSAAIESCNKALELDSNNEKGLFRRGEAHLAVNDFELARADFQKVLQLYPNNKAAKTQLAVCQQRIRRQLAREKKLYANMFERLAEEENKAKAEASSGDHPTDTEMKEEQKSNTAGSQSQVETEA
notes: FKBP52, human immunophilin; The cited PDB entries hold overlapping segments of FKBP52, not the construct used here; source: provided by Sophie Jackson and David Agard's labs; expressed and purified as previously described [33]
On to B1, for which the “stoichiometry N” value in assay [1] is ≤ 2 per Hsp90 dimer; in assay [2] it was 1 per Hsp90 monomer; in assay [3], 1 per Hsp90 dimer; in assay [4], ≤ 2 per Hsp90 monomer; in assay [5] it was 1 per client-transfer complex.

B2: glucocorticoid receptor ligand-binding domain (residues 521-777, F602S) (domain or fragment, human, UniProt P04150 521-777, looked up)
chain: VPATLPQLTPTLVSLLEVIEPEVLYAGYDSSVPDSTWRIMTTLNMLGGRQVIAAVKWAKAIPGFRNLHLDDQMTLLQYSWMSLMAFALGWRSYRQSSANLLCFAPDLIINEQRMTLPCMYDQCKHMLYVSSELHRLQVSYEEYLCMKTLLLLSSVPKDGLKSQELFDEIRMTYIKELGKAIVKREGNSSQNWQRFYQLTKLLDSMHEVVENLLNYCFQTFLDKTMSIEFPEMLAEIITNQIPKYSNGNIKKLLFHQK
notes: Used without ligand; also called GR; source: provided by Sophie Jackson and David Agard's labs; expressed and purified as previously described [33]
Turning to B2, the “stoichiometry N” value in assay [6] was 1 per Hsp90 dimer.

B3: p23 (natural protein, human, UniProt Q15185 1-160, looked up)
chain: MQPASAKWYDRRDYVFIEFCVEDSKDVNVNFEKSKLTFSCLGGSDNFKHLNEIDLFHCIDPNDSKHKRTDRSILCCLRKGESGQSWPRLTKERAKLNWLSVDFNNWKDWEDDSDEDMSNFDRFSEMMNNMGGDEDVDLPEVDGADDDSQDSDDEKMPDLE
notes: p23 co-chaperone, human; source: provided by Sophie Jackson and David Agard's labs; expressed and purified as previously described [33]
Consider B3, for which the “stoichiometry N” value in assay [7] was found to be 1 per Hsp90 dimer; in assay [8], 2 per Hsp90 dimer.
